US20230279079A1 (CHANG GUNG MEMORIAL HOSPITAL LINKOU, published 2023)

Columns and labels:
[1] = target: T1, SARS-CoV-2 spike receptor binding domain (RBD) (SARS-CoV-2, UniProt P0DTC2 319-541); experiment: ELISA
T1 construct: also called SARS-CoV-2 RBD

[2] = target: T2, SARS-CoV-2 spike S2 subunit (SARS-CoV-2, UniProt P0DTC2 686-1213); experiment: ELISA
T2 construct: domain: S2 subunit

SARS spike S1 subunit = target: T3, SARS spike S1 subunit (severe acute respiratory syndrome …, UniProt P59594 14-667); experiment: ELISA
T3 construct: domain: S1 subunit

[3] = target: T4, MERS spike extracellular domain (Middle East respiratory syndrome …, UniProt K9N5Q8 18-1296); experiment: ELISA
T4 construct: extracellular domain

[4] = target: T5, Human coronavirus OC43 spike extracellular domain (human coronavirus OC43, UniProt P36334 14-1297); experiment: ELISA
T5 construct: extracellular domain

[5] = target: spike glycoprotein of wild type SARS-CoV-2 virus (SARS-CoV-2, UniProt P0DTC2 14-1273); experiment: cell-based or functional assay
[6] = target: T6, SARS-CoV-2 nucleocapsid protein (SARS-CoV-2, UniProt P0DTC9 1-419); experiment: ELISA on recombinant protein
T6 construct: also called N protein

B1: FJ 1C (antibody, V domains shown)
VH: QVQLQESGPGLVKPSETLSLTCTVSGYSISSGYYWGWIRQPPGKGLEWIGSIYHSGSTYYNPSLKSRVTISVDTSKNQFSLKLSSVTAADTAVYYCARDKALLWFGELFTNLFDYWGQGTLVTVSS
VL: QSALTQPASVSGSPGQSITISCTGTSSDVGGYNYVSWYQQHPGKAPKLMIYEVSNRPSGVSNRFSGSKSGNTASLTISGLQAEDEANYYCSSYTSSSTLVFGGGTKLTVL
B1: no binding [1]; no binding [2]; binds (SARS spike S1 subunit). The binding result [3] was “no binding”, the binding result [4] was “no binding” and the “Neutralization by PRNT EC50” value [5] was 55.5 nM.

B2: EY 8A (antibody, V domains shown)
VH: EVQLVESGPGLVKPSQTLSLTCTVSGGSISSGSYYWSWIRQPAGKGLEWIGRIYTSGSTNYNPSLKSRVTISVDTSKNQFSLKLSSVTAADTAVYYCAKGHVISGYDDYYYYYGMDVWGQGTTVTVSS
VL: not shown
B2: binds [6].

B3: FD 7D (antibody, V domains shown)
VH: EVQLVESGAEVKKPGESLRISCKGSGYSFTSYWISWVRQMPGKGLEWMGRIDPSDSYTNYSPSFQGHVTISADKSISTAYLQWSSLKASDTAMYYCARHSDCSSTSCYFVDAFDIWGQGTMVTVSS
VL: not shown
B3: no binding [1]; no binding [2]; no binding (SARS spike S1 subunit). B3: no binding [3]; no binding [4].

B4: EZ 7B (antibody, V domains shown)
VH: EVQLVESSPGLVKPSETLSLTCTVSGGSISSYYWSWIRQPPGKGLEWIGYIYYSGSTNYNPSLKSRVTISVDTSKNQFSLKLSSVTAADTAVYYCARRVFGPVLPSKLGGSYWGGGAFDIWGQGTMVTVSS
VL: not shown
B4: binds [6].

B5: EY 5A (antibody, V domains shown)
VH: EVQLVESGPGLVKPSGTLFLTCTVSGGSISNYYWSWIRQPPGKALEWIGFIYSNGNTDYNPSLQSRVTISGDTSKNQFSLNLRSVTAADTAVYYCARGPGPATGGSLDYWGQGTMVTVSS
VL: not shown
B5: binds [6].

B6: EZ 4C kappa (antibody, V domains shown)
VH: EVQLVESGPGLVKPSETLSLTCTVSGGSVSSGNNYWSWIRQPPGKALEWIGYIYYSGSTKYNPSLKSRVTMSVGTSKNQFSLKVNSVTAADTAMYYCARAPSAPFGGLFDWILPKGINNWGQGTLVTVSS
VL: EIVLTQSPSTLSASVGDRVTITCRTSQSIRSWLAWYQQKPGKAPKLLIFEASTLESGVPERFSGSGSGAEFTLTISSLQPDDFATYYCQQYNGYSYSFGQGTKVEIR
notes: also called EZ 4C-1
B6: binds [6].

B7: FD 8B (antibody, V domains shown)
VH: EVQLLESGAEVKKPGASVKVSCKVSGYTLTELSMHWVRQAPGKGLEWMGGFDPEDGETIYAQKFQGRVTMTEDTSTDTAYMELSSLRSEDTAVYYCATAAAINCSSTSCYYYYYYYGMDVWGQGTTVTVSS
VL: not shown
B7: no binding [1]; no binding [2]; no binding (SARS spike S1 subunit). B7: no binding [3]; no binding [4].

B8: EY 6A-1 (antibody, V domains shown)
VH: EVQLVESGGGVVQPGRSLRLSCAASAFTFSSYDMHWVRQAPGKGLEWVAVISYDGSNKYYADSVKGRFTISRDNSKNTLYLQMNSLRAEDTAVYYCAKDGGKLWVYYFDYWGQGTLVTVSS
VL: not shown
B8: no binding [2]; binds (SARS spike S1 subunit); no binding [3]. For the same binder, the binding result [4] was “no binding”, the “Neutralization by FMNT EC50” value [5] was 22.5 nM and the “Neutralization by PRNT EC50” value [5] was 133 nM.

B9: FG 12C (antibody, V domains shown)
VH: EVQLVESGGGLVQPGRSLRLSCAASGFTFDDYAMHWVRQAPGKGLEWVSGISWNSGSIGYADSVKGRFTISRDNAKNSLYLQMNSLRAEDTALYYCAKDMRVHDYGDYYFDYWGQGTLVTVSS
VL: SYELTQPPSVSVAPGKTARITCGGNNIGSKSVHWYQQKPGQAPVLVIYYDSDRPSGIPERFSGSNSGNTATLTISRVEAGDEADYYCQVWDSSSDHPVFGGGTKLTVL
B9: no binding [1]; no binding [2]; no binding (SARS spike S1 subunit). B9: no binding [3]; no binding [4].

B10: FN 8C (antibody, V domains shown)
VH: QVQLVESGGGVVQPGRSLRLSCAASGFTFSSYGMHWVRQAPGKGLEWVAVISYDGSNKYYADTVKGRFTISRDNSKNTLYLQMNSLRAEDTAVYYCARERTYYDILTGYRHYYGMDVWGQGTTVTVSS
VL: SYELTQPPSVSVAPGQTARITCGGNNIGSKSVHWYQQKPGQAPVLVVYDDSDRPSGIPERFSGSNSGNTATLTISRVEAGDEADYYCQVWDSSSDHWVFGGGTKLTVL
B10: no binding [1]; no binding [2]; no binding (SARS spike S1 subunit). B10: no binding [3]; no binding [4].

B11: FD 11C (antibody, V domains shown)
VH: EVQLLESGPGLVKPSETLSLTCTVSGGSISSSSYYWGWIRQPPGKGLEWIGSIYYSGSTYYNPSLKSRVTISVDTSKNQFSLKLSSVTAADTAVYYCAREYYYGSETKKYYYYYGMDVWGQGTTVTVSS
VL: not shown
B11: no binding [1]; no binding [2]; no binding (SARS spike S1 subunit). B11: no binding [3]; no binding [4].

B12: FD 11D (antibody, V domains shown)
VH: EVQLVESGGGVVQPGRSLRLSCAASGFTFSSYGMHWVRQAPGKGLEWVAVISYDGSNKYYADSVKGRFTISRDNSKNTLYLQMNSLRAEDTAVYYCAKEGAGSGWYRHHKPGYYFDYWGQGTLVTVSS
VL: not shown
B12: no binding [1]; no binding [2]; binds (SARS spike S1 subunit). B12: binds [3]; binds [4].

B13: EZ 4A (antibody, V domains shown)
VH: EVQLVQSGAEVKKPGESLKISCKGSGYSFTSYWIGWVRQMPGKGLEWMGIIYPGDSDTRYSPSFQGQVTISADKSISTAYLQWSSLKASDTAMYYCARSPIAADLFDYWGQGTLVTVSS
VL: not shown
B13: binds [6].

B14: FD 1E (antibody, V domains shown)
VH: EVQLLESGGGLVKPGGSLRLSCAASGFTFSSYSMNWVRQAPGKGLEWVSSISSSSSYIYYADSVKGRFTISRDNAKNSLYLQMNSLRAEDTAVYYCASLAAAGPETYYYYGMDVWGQGTMVTVSS
VL: not shown
B14: no binding [1]; no binding [2]; no binding (SARS spike S1 subunit). The binding result [3] was “no binding”, the binding result [4] was “no binding” and the “Neutralization by PRNT EC50” value [5] was 110 nM.

B15: FI 1C (antibody, V domains shown)
VH: EVQLVESGGGLVKPGGSLRLSCAASGFTFSDYYMSWIRQAPGKGLEWVSYISSSGSTIYYADSVKGRFTISRDNAKNSLYLQMNSLRAEDTAVYYCARRSNRFLIAFDIWGQGTMVTVSS
VL: QSALTQPASVSGSPGQTITISCTGTSSDVGGYNYVSWYQQHPGKAPKLMIYEVSNRPSGVSNRFSGSKSGNTASLTISGLQAEDEADYYCSSYTSSSTLVVFGGGTKLTVP
B15: no binding [2]; no binding (SARS spike S1 subunit); no binding [3]. For the same binder, the binding result [4] was “no binding”, the “Neutralization by FMNT EC50” value [5] was 2.24 nM and the “Neutralization by PRNT EC50” value [5] was 16.7 nM.
